The target of data set [1] is SatR (Streptococcus suis (WT strain, name not in the material)) (UniProt G9CHX9). The experiment in a line: BLI. The following applies: EMSA: Beyotime EMSA binding buffer, 20 min, room temperature, 4% native PAGE; proteins dialyzed in 25 mM Tris pH 7.4, 150 mM NaCl, 5% glycerol, 0.5 mM EDTA ….
Data set [2] deals with CiaR, phosphorylated (Streptococcus suis (WT strain, name not in the material)) (UniProt A0A0H3MUU9). Briefly: BLI. The following applies: EMSA: Beyotime EMSA binding buffer, 20 min, room temperature, 4% native PAGE; proteins dialyzed in 25 mM Tris pH 7.4, 150 mM NaCl, 5% glycerol, 0.5 mM EDTA …. (In general: Mobility shift assays separate free from complexed probe on a gel.)

For data set [3], the target named is T1, SatR (Streptococcus suis (WT strain, name not …, UniProt G9CHX9 1-149)). Briefly: EMSA; 800 ng SatR; EMSA: Beyotime EMSA binding buffer, 20 min, room temperature, 4% native PAGE; proteins dialyzed in 25 mM Tris pH 7.4, 150 mM NaCl, 5% glycerol, 0.5 mM EDTA, 1 mM DTT; BLI (Octet RED96) conditions not in material. The following applies: protein: recombinant; tags: C-terminal 6xHis (from primer; pET-30a(+)); chain copies: 2; label: biotin 3' end; blunt.

Data set [4] deals with T1, SatR. Briefly: EMSA; 200-800 ng SatR; EMSA: Beyotime EMSA binding buffer, 20 min, room temperature, 4% native PAGE; proteins dialyzed in 25 mM Tris pH 7.4, 150 mM NaCl, 5% glycerol, 0.5 mM EDTA, 1 mM DTT; BLI (Octet RED96) conditions not in material. The following applies: protein: recombinant; tags: C-terminal 6xHis (from primer; pET-30a(+)); chain copies: 2; label: biotin 3' end; blunt.

Consider satAB promoter (Octet), for which the Kd – broadly, the free concentration of one partner at which half of the binding sites on the other are occupied at equilibrium, for simple one-to-one binding – amounted to 0.061 µM in data set [1] and 0.434 µM in data set [2].

B1: satAB internal fragment (EMSAneg-satR) (dsDNA)
DNA 1: CTCGCTTGGCCTTGGTGACCATTGCTTCTACGCCAGTTGCCTTGATTGCCTTGGTCGTT
DNA 2: AACGACCAAGGCAATCAAGGCAACTGGCGTAGAAGCAATGGTCACCAAGGCCAAGCGAG
B1: the binding result with SatR [3] is reported as “no binding”.

B2: satRAB promoter EMSA probe (dsDNA)
DNA 1: TTGACAATAGTTCTTAAGAGAACTATAATAGTTCTCATGGTAATTATTTTCGTAGAAAG
DNA 2: CTTTCTACGAAAATAATTACCATGAGAACTATTATAGTTCTCTTAAGAACTATTGTCAA
On to B2, for which, in the data set with SatR [4], the binding result is “binds”.

The values above are taken from article PMC9241815, “Role of the Two-Component System CiaRH in the Regulation of Efflux Pump SatAB and Its Correlation with Fluoroquinolone Susceptibility”.
